Columns and labels:
[1] = collection tubes containing EDTA; ref 3 (Toräng et al.); cited from earlier work
Source text: (§1) Maurer et al. have quoted Toräng et al.'s study on PYY's major cleaving sites but disregarded the outcome from their study of the inhibitory effects of EDTA on metalloendoproteases, neuroendopeptidase (NEP) and Meprin β.[3] […] We have studied the stability of both PYY species with our inhibitor mix containing DPP4 inhibitor and Aprotinin, where we spiked PYY1 –36 and PYY3 –36 into plasma EDTA and LH from three different volunteers.

[2] = Stability of PYY1-36 and PYY3-36 in EDTA and lithium heparin plasma (LC-MS/MS assay validation); assay type: in vitro ADME, human; conditions: for degradation in plasma at 4°C / degradation in plasma at room temperature / mean percentage difference in concentration, overall and between all tested sample sets: EDTA or LH plasma; for degradation in plasma at 4°C: 3 h time-point at 4°C; for degradation in plasma at 4°C / degradation in plasma at room temperature: with or without inhibitors (DPP4 inhibitor and Aprotinin), spiked samples and healthy volunteer samples, triplicate QCs (low and high); for degradation in plasma at room temperature: 3 h time-point at room temperature (19°C); for mean percentage difference in concentration, overall and between all tested sample sets: presence versus absence of inhibitors, 3 h at 19°C or 4°C, mean of injections of triplicate QCs (low and high); for differences in concentrations with only DPP4 inhibitor and Aprotinin present: spiked into plasma EDTA and LH from three different volunteers, inhibitor mix of DPP4 inhibitor and Aprotinin
Method: We have verified stability of PYY1 –36 and PYY3 –36 at preanalytical, analytical and post‐analytical stages of the assay. At preanalytical stage the whole blood is collected in prechilled lithium heparin (LH) or ethylenediaminetetraacetic acid (EDTA) tubes and containing evaluated in‐house inhibitors (DPP4 inhibitor and Aprotinin). The sample is centrifuged immediately at 4°C and flash‐frozen on dry ice or transferred immediately to a −80°C freezer. The samples are kept at −80°C until being thawed once only for analysis.
We deemed our protease inhibitors sufficient for maintaining stability of PYY1 –36 and PYY3 –36 and inhibiting peptide degradation.
as §1
Furthermore, we have verified the stability of both species of PYY in both EDTA and LH plasma under the following conditions: (1) freezing and thawing up to a second cycle; (2) incubation at 4°C for up to 4 h; (3) long‐term storage (6 months) at −80°C; (4) postextraction, during storage in the autosampler at 4°C. We have verified the stability of our stock and working stock solutions for up to 7 months, stored at […]. We would state that it is a matter of standard operating procedure that we store these solutions at −80°C and discard these at the end of the day of the run after thawing, affording a safety margin. Last, our assay has been validated both with plasma‐based calibrants and QCs, and cross‐validated in a surrogate matrix (20BMA). We also validated matrix effects (ME) in spiked plasma EDTA and plasma LH. Mean percentage ME for PYY1 –36 was 100.7% and for PYY3 –36, 111% in plasma LH. EDTA ME results were reported previously.[2]

| Substance | risk of PYY degradation in collected blood [1] | degradation in plasma at 4°C [2] | degradation in plasma at room temperature [2] | mean percentage difference in concentration, overall and between all tested sample sets [2] [%] | differences in concentrations with only DPP4 inhibitor and Aprotinin present [2] |
| --- | --- | --- | --- | --- | --- |
| PYY: peptide YY, species not specified, as studied by Toräng et al. | small |  |  |  |  |
| peptide YY1 –36 [PYY1 –36] |  | no degradation | no degradation | ≤ 10 | did not detect any significant differences |
| peptide YY3‐36 [PYY3 –36] |  | no degradation | no degradation | ≤ 10 | did not detect any significant differences |
